From the DeepSol protein solubility set come the findings set out here.

This data set in a line: soluble on expression in E. coli; label from the status in PepcDB or PDB records.
Take “SADESDMRNELNDIQARADQLGDESLESTRRMLQLVEESKDAGIRTLVMLDEQGEQLERIEEGMDQINKDMKEAEKNLTDLGNLCGLCPCPCNKLKGGGQSWGNNQDGVVSSQPARVVDEREQMAISGGFIRRVTNDARENEMDENLEQVGSIIGNLRHMALDMGNEIDTQNRQIDRIMDMADSNKTRIDEANQRATKMLGSG”: the “soluble on expression in E. coli” value is on record as “soluble”.

Take “MSGGPVKTPFLSFIIPAYNEEQRLPSYLERVIGFFAGQSYSFEIVVVDDGSSDGTAALVKALMAQHSCLRLEALDRNRGKGFAVKTGMSAAKGQLRVFADADGATPVEEIRRLLDAREQGADIAIGSRAMRSDECIVQGRVHRKIMGTVFNGLIRALAVRGIHDSQCGFKLFTASAAEDIFPRQRITGFGFDVELLFLARRLGYVVVEVPVNWSDVEGTKVRLVRDSFRMLGEVLRIRFTNLTGGYGDIPGKTLEHHHHHH”: the “soluble on expression in E. coli” value was “not soluble”.

Regarding “MSLSITRRVRLSVDTCCYEAEIAGILRPQLLKGRMSVREEFDAWAAEGKDRGMEDRHWHTAKHVLARMPVEPGDTVLDLGTGSGYALRALRDTNDAGPCYGLDGSPEMLRNAREYTDDDGIGFLRGDFDALPFATDSIDHVFSMEAFYYASDPPHTLEEIARVLRPGGTANIAVNYYEENVHSHEWQEFIDIEMTRWSADEYREAFREAGLAVAAQDTIPDREVEIPPADTFPTDEFETREAMVERYRELGTLLTVGVATEGHHHHHH”, the “soluble on expression in E. coli” value was “soluble”.

Regarding “MIEWQDLHHSELSVSQLYALLQLRCAVFVVEQNCPYQDIDGDDLTGDNRHILGWKNDELVAYARILKSDDDLEPVVIGRVIVSEALRGEKVGQQLMSKTLETCTHHWPDKPVYLGAQAHLQNFYQSFGFIPVTEVYEEDGIPHIGMAREVIQA”, the “soluble on expression in E. coli” value is “soluble”.

On to “MGSDKIHHHHHHMEDNDWKLLKIIEISMKNHEWVPIQDLRRKTGFHEKEIVFRLGRLNKFKFTNKSNYGYRLSHWGYDALAMNAFIKKELIAGIGGKVGVGKEGDVYHVLLTNHREAVLKFHQLGRTCFSMGKRYREYLANKRHISWLYASRLTAAREFEVLNMLFPVVKVPEPIEQNRHAIIMGKLHGEELKRVNLLEINVDPEEFFWKLMVEVKKTYKLGIIHGDLSEFNILIDSEGDFVIIDWPQAIEVGKKGKLDKLPFEEVEYDEEFYLKRDIENVVRYFKKYGIDKDIDKLYNYVIGDITSENI”, for which the “soluble on expression in E. coli” value was “not soluble”.

For the sequence “MKLLTSPFQGLKWLAPLLADDGSLHIPPQDLIQHKGISSWEVKVIVTRIDFLADQVTGTAIHQLTIDPARPFSGTEVPINITGEGTLLVTMQITAMSEDRPYCNRQYLAADIIAVVPPGVQNKVHNITHPAAPTIQHLSVGGGYTPIRQLVVQRE”, the “soluble on expression in E. coli” value is listed as “not soluble”.

With “MNTIAFKEIFLPIRPSIRAVCHAFLRDDEEAEDATQEVYLRLWEARMRLDGLDNPRAYAIRIARNYCLNLIRKASNSPYPTSLEAAEVQEVSETHGGEADLLLSEQIGRLRQWLRGVSELYRTVFAMSHFRRLSNGEIAERLGLTEGNVRVILCRLRREAKEVMKDDA”, the “soluble on expression in E. coli” value is “not soluble”.

“MILTITYTQPPATDLGYLLHKNPSRPQTFELNHGKAHIFYPEATSERCTVALLLDIDPIDLARGKKGSSGEGGLFDYVNDRPYVSSSFMSVAISRVFGTAMSGKCKEKPELAAIKLPLKAKIMMLPCKGGEEIIYRLFEPLGYKVDVEGYMLDEKFPEWGKSRYYTVSLEGEVRVRDLLNHIYVLIPVLDSEKHYWVGEDEIDKLFQHGEGWLVDHPEKELITGRYLIRKKRLVNQALKRLLEASDVVDDENEDDEPLKNEETEKKLNLNQQRLGTVVAVLKSVNAKKVIDLGCGEGNLLSLLLKDKSFEQITGVDVSYSVLERAKDRLKIDRLPEMQRKRISLFQSSLVYRDKRFSGYDAATVIEVIEHLDENRLQAFEKVLFEFTRPQTVIVSTPNKEYNFHYQNLFEGNLRHRDHRFEWTRKEFETWAVKVAEKYGYSVRFLQIGEIDDEFGSPTQMGVFTL”: the “soluble on expression in E. coli” value was “not soluble”.

As for “MAQQGVFTLPANTSFGVTAFANAANTQTIQVLVDNVVKATFTGSGTSDKLLGSQVLNSGSGAIKIQVSVNGKPSDLVSNQTILANKLNFAMVGSEDGTDNDYNDGIAVLNWPLG”, the “soluble on expression in E. coli” value is “soluble”.

On to “MVMPESHIHNIPMEQCVLVALMTFALSYELIAQDLDEGCFYPERHKQIYNAIVELANENQPYDVVMVEQRLKSKNLLHVLGGEQYLKIMLAEAPSSFHSMEPYITQLKKLKAHRQVEWLGQRISSMAQDTTQPDVFAEAENILGQVDNQEQSDQGMSFEAALDMALTEMIEKAEAKDKQQFTGVKFNLKHLDELLGTVQKGHFCVVGGRPGSGKSTLAQMLALDTASSFGKGVLFISAEMDQSTLANRMISALGLIPYHNIHNAELYNGLMKDYADAKAAYQRLPIWIQPKQKPSLSEVRSYARRAKRRYKELGCIIVDYLQLLRDPSKKDRFQEVSSISRELKSMAKEFECPVIALVQLNREAEKGKRPKASDIKESGQIEQDADQIILVNPLTDPEDSTKPMGITELIVVKNRHGKRGAVRVLDYLETCRFRSVEEQAEP”, for which the “soluble on expression in E. coli” value is recorded as “not soluble”.

Consider “MEALEEYTPTLLGEVAATLRGENELWLGLALISGKFNDLEPEQLAAAASALITETPRSDAWTDFKPSPVVLAALRPSNDLFGLLFCLKHPQPPLALWQAMTVADHLQRLNLWDLRRKLIKAQNQRAIAIPLWLEVDFMGLVEQWALGMEWENLCRQTSLDEGDLVRLFRRTVDLLWQIPQVPHLSPRLKRNARIAVQQMKRFPLLEHHHHHH”, for which the “soluble on expression in E. coli” value is on record as “not soluble”.

As for “MPSDAPIDFTGLIRASDLVVCGQATAEPLTLTEALMAQAADLPPFRLMVGPVFSDTFAAAPPNVSFVSYGVIGHARKLARAGRLDVIPSNYSAFCADFAAGRHRADVVLVQLAEAPDGRLSASLSCDYVIDAARRARLVIAEINPDAPFTYGAEWPGEVPIHIRVAARRKPVELPSGALDDVSRKIAANAAGLIADGATLQFGVGKIPDAILSSLVHARDLGIHSGLINDAVVELIERGVVTNARKGIDPGVTVTNQLIGTQRLYRFAHQNRSVRMQPAAYTHDHGVLGRINRLTAINSALQVGLDGSVNAETLNGVAIGAIGGQLDFVRGANASPGGRALIALPATAPDGSSRIVARVETVTTPRADVDVIVTEWGVAELRGCSLAERARQMIAIAAPEHRDRLAEQARTIALEHHHHHH”, the “soluble on expression in E. coli” value is reported as “not soluble”.

As to “MSLEKLTYAEVVNVIDGQVLGGRAGLHKTLNKFVIGAMELDAMMRYTAAGNLLIVGNRINAHRQALEAGAAVLVTGGFNTDDSIVQLADELELPILSTSYDTFTVAAMINRAIYDQLIKKEIVLVEDILTPADRTVYLSPKDKLEKWYEKNFETGHGRFPVVDDQMKIHGILTSKDIAGHDRNASIEKVMTKNPVTVIGKTSVASAAQMMVWEGIEVLPVTDGHQKLIGMISRQDVLKALQMIQKEGHHHHHH”, the “soluble on expression in E. coli” value was “soluble”.

As to “DIQMTQSPSSLSASVGDRVTITCRTSGNIHNYLTWYQQKPGKAPQLLIYNAKTLADGVPSRFSGSGSGTQFTLTISSLQPEDFANYYCQHFWSLPFTFGQGTKVEIKRTGGGGSGGGGSGGGGSGGGGSEVQLVESGGGLVQPGGSLRLSCAASGFDFSRYDMSWVRQAPGKRLEWVAYISSGGGSTYFPDTVKGRFTISRDNAKNTLYLQMNSLRAEDTAVYYCARQNKKLTWFDYWGQGTLVTVSSHHHHHH”, the “soluble on expression in E. coli” value is on record as “soluble”.

On to “MVEPQHNVMQMGGDFANNPNAQQFIDKMVNKHGFDRQQLQEILSQAKRLDSVLRLMDNQAPTTSVKPPSGPNGAWLRYRKKFITPDNVQNGVVFWNQYEDALNRAWQVYGVPPEIIVGIIGVETRWGRVMGKTRILDALATLSFNYPRRAEYFSGELETFLLMARDEQDDPLNLKGSFAGAMGYGQFMPSSYKQYAVDFSGDGHINLWDPVDAIGSVANYFKAHGWVKGDQVAVMANGQAPGLPNGFKTKYSISQLAAAGLTPQQPLGNHQQASLLRLDVGTGYQYWYGLPNFYTITRYNHSTHYAMAVWQLGQAVALARVQ”, for which the “soluble on expression in E. coli” value is “soluble”.

As to “MGSDKIHHHHHHLLASGLEYSHHMSPDAMVEDITRLVEIWVTGWAGCRGYETRTEGRFPAALRADTTKEWEYFAHDPSDTEFAELAAKTAEAPARILTILTNDVARYTYLAQQHGLNVTSASQTMMIVDMETRDSEDPWLSDDDLKLTTFKKDGVHHAVVNAGESVAASGRVFVVGHTAVFDKIVTEPAYQRRGLGSFIMKALAAQAFEHDVENGLLLASLDGQKLYSHLGWTTLCHVLMLSSSNEGADLSVG”, the “soluble on expression in E. coli” value is “not soluble”.

With MCMPLLPGEQQHLLIDRLEKRVPTAAGEGATTKL, the “soluble on expression in E. coli” value was “not soluble”.

For the sequence “SEVRWCATSDPEQHKCGNMSEAFREAGIQPSLLCVRGTSADHCVQLIAAQEADAITLDGGAIYEAGKEHGLKPVVGEVYDQEVGTSYYAVAVVRRSSHVTIDTLKGVKSCHTGINRTVGWNVPVGYLVESGRLSVMGCDVLKAVSDYFGGSCVPGAGETSYSESLCRLCRGDSSGEGVCDKSPLERYYDYSGAFRCLAEGAGDVAFVKHSTVLENTDGKTLPSWGQALLSQDFELLCRDGSRADVTEWRQCHLARVPAHAVVVRADTDGGLIFRLLNEGQRLFSHEGSSFQMFSSEAYGQKDLLFKDSTSELVPIATQTYEAWLGHEYLHAMKGLLCDPNRLPPYLRWCVLSTPEIQKCGDMAVAFRRQRLKPEIQCVSAKSPQHCMERIQAEQVDAVTLSGEDIYTAGKKYGLVPAAGEHYAPEDSSNSYYVVAVVRRDSSHAFTLDELRGKRSCHAGFGSPAGWDVPVGALIQRGFIRPKDCDVLTAVSEFFNASCVPVNNPKNYPSSLCALCVGDEQGRNKCVGNSQERYYGYRGAFRCLVENAGDVAFVRHTTVFDNTNGHNSEPWAAELRSEDYELLCPNGARAEVSQFAACNLAQIPPHAVMVRPDTNIFTVYGLLDKAQDLFGDDHNKNGFKMFDSSNYHGQDLLFKDATVRAVPVGEKTTYRGWLGLDYVAALEGMSSQQC”, the “soluble on expression in E. coli” value is “soluble”.

“MGSDKIHHHHHHMTKSDLLFDKFNDKHGKFLVFFGTFVDTPKLGELRIREKTSVGVLNGIIRFVNRNSLDPVKDCLDHDSSLSPEDVTVVDIIGKDKTRNNSFYFPGFVDTHNHVSQYPNVGVFGNSTLLDWLEKYTFPIEAALANENIAREVYNKVISKTLSHGTTTVAYYNTIDLKSTKLLAQLSSLLGQRVLVGKVCMDTNGPEYYIEDTKTSFESTVKVVKYIRETICDPLVNPIVTPRFAPSCSRELMQQLSKLVKDENIHVQTHLSENKEEIQWVQDLFPECESYTDVYDKYGLLTEKTVLAHCIHLTDAEARVIKQRRCGISHCPISNSSLTSGECRVRWLLDQGIKVGLGTDVSAGHSCSILTTGRQAFAVSRHLAMRETDHAKLSVSECLFLATMGGAQVLRMDETLGTFDVGKQFDAQMIDTNAPGSNVDMFHWQLKEKDQMQEQEQEQGQDPYKNPPLLTNEDIIAKWFFNGDDRNTTKVWVAGQQVYQI”: the “soluble on expression in E. coli” value is reported as “not soluble”.

For “MIPTTATVDDEPGQIKRALIDASAGAISGGVSRSVTSPLDVIKIRFQVQLEPTTSWGLVRGNLSGASKYTGMVQATKDIFREEGFRGFWRGNVPALLMVMPYTSIQFTVLHKLKSFASGSTKTEDHIHLSPYLSFVSGALAGCAATLGSYPFDLLRTILASQGEPKVYPTMRSAFVDIIQSRGIRGLYNGLTPTLVEIVPYAGLQFGTYDMFKRWMMDWNRYKLSSKIPINVDTNLSSFQLFICGLGAGTSAKLVCHPLDVVKKRFQIEGLQRHPRYGARVERRAYRNMLDGLRQIMISEGWHGLYKGIVPSTVKAAPAGAVTFVAYEFTSDWLESISW”, the “soluble on expression in E. coli” value is given as “soluble”.
